Where a chain is given by its changes, count along the chain named.
B1: h_Nb2: anti-human PD-L1 nanobody, VHH SEQ ID NO: 5 (protein)
VHH: DVQLQESGGGLVQPGGSLRLSCAASGFTFGDRWMYWLRQAPGKGLEWVSSINPAGRSTYYADSVKGRFTISRDNAKNTLYLQMNSLKSEDTAVYYCTKDPGGYQKGQGTQVTVSS
modifications: h_Nb2 VHH
B2: h_Nb1: anti-human PD-L1 nanobody, VHH SEQ ID NO: 1 (protein)
VHH: DVQLQESGGGLVQPGGSLRLSCAASGFTFSSYAMSWVRQAPGKGLEWVSDINSGGDNTDYADSVKGRFTISRDNAKNTLYLQMNSLKPEDTAVYYCARGPKLCFSSWGQGTQVTVSS
modifications: h_Nb1 VHH
B3: h_Nb2_G101Y: affinity-matured VHH of h_Nb2, SEQ ID NO: 92 (protein)
VHH: B1 VHH with G102Y
modifications: h_Nb2_G101Y VHH
B4: KN035: positive control antibody (sequence from the IMGT database) (antibody, chains of the INN, looked up, V domains shown)
VH: QVQLVESGGGLVQPGGSLRLSCAASGKMSSRRCMAWFRQAPGKERERVAKLLTTSGSTYLADSVKGRFTISRDNSKNTVYLQMNSLRAEDTAVYYCAADSFEDPTCTLVTSSGAFQYWGQGTLVTVSS
B5: h_Nb9: anti-human PD-L1 nanobody, VHH SEQ ID NO: 20 (protein)
VHH: DVQLQESGGGLVQPGGSLRLSCASSGSIFGLGVKGWYRQPPGNQREMVAQIISGGRISYADSVKGRFTISRDNAKNTVYLQMNSLKPEDTAVYYCNAWGPGQRNYWGRGTQVTVSS
modifications: h_Nb9 VHH
B6: h_Nb12: anti-human PD-L1 nanobody, VHH SEQ ID NO: 24 (protein)
VHH: DVQLQESGGGLVQAGGSLRLSCAASGRTFSSRAMGWFRQAPGKEREFVAAISGSGRNTYYADSVKGRFTISRDNAKNSVNLQMNSLKPEDTAVYYCNAAGGGITIATMTQRTQYDYWGQGTQVTVSS
modifications: h_Nb12 VHH
B7: h_Nb5: anti-human PD-L1 nanobody, VHH SEQ ID NO: 13 (protein)
VHH: DVQLQESGGGAVQSGESLRLSCAASGRDLMFYDVAWFRQAPGKEREGVSYIRSSGTLTKYADSVKGRFTISRDNDKNTVSLQMNSLNPEDTAKYYCAARLQSATSHSDLREDEFNSWGQGTQVTVSS
modifications: h_Nb5 VHH
B8: h_Nb13: anti-human PD-L1 nanobody, VHH SEQ ID NO: 28 (protein)
VHH: DVQLQESGGGLVQPGGSLRLSCAASGSIFSINAMGWYRQAPGKSRELVAAITSGGSTNYADSVKGRFTISRDTAKNTVYLLMNSLEPEDTAVYYCNVERRRPPHYLSEYDFDWGQGTQVTVSS
modifications: h_Nb13 VHH
B9: h_Nb26: anti-human PD-L1 nanobody, VHH SEQ ID NO: 36 (protein)
VHH: B8 VHH with S25P, S30R, S44Q, K64Q, T73N, L81Q, E86K, L106Y, E108D
modifications: h_Nb26 VHH
B10: h_Nb6: anti-human PD-L1 nanobody, VHH SEQ ID NO: 17 (protein)
VHH: DVQLQESGGGLAQPGGSLRLSCAASGFTFSSYAMSWARQAPGKGLEWVAGIYRGGSDTYYADSVKGRFTISRDNTKNTLYLQMNSLKPEDTALYYCIQGWGLGYANYDYWGQGTQVTVSS
modifications: h_Nb6 VHH
B11: h_Nb4: anti-human PD-L1 nanobody, VHH SEQ ID NO: 9 (protein)
VHH: DVQLQESGGGLVQAGGSLRLSCAAPSRMFSGYTMGWYRQAPGKQRELVAQIANGGFTDYIDSVKGRFSISRDTVLNMMYLQMNSLKPEDTAVYYCNLVLVNGIPTRNWGQGTQVTVSS
modifications: h_Nb4 VHH

The molecules below were run against T1, human PD-1/PD-L1 (Homo sapiens, UniProt Q9NZQ7) (assay: IC50 of blocking human PD-1/PD-L1 binding on HEK293T/hPD-L1 cells, flow cytometry). Conditions: PD-1/PD-L1 blocking, FIG. 3.
T1 construct: expressed in transfected cells; host or cells: HEK293T
T1 sequence (Q9NZQ7 19-290): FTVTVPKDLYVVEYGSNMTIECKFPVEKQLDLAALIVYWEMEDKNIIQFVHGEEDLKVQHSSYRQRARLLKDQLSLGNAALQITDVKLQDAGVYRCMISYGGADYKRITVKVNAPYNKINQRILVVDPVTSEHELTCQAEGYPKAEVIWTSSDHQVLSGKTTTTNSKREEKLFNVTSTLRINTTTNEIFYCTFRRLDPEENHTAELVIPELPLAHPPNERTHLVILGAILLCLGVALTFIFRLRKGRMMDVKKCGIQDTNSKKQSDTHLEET
Description: The cell samples were prepared by digesting the stably transfected cell line HEK293T/hPD-L1. Different concentrations of nanobodies h_Nb1 or h_Nb2 or positive control antibody KN035 (sequence from the IMGT database) and human PD-1-his protein (concentration of 1 μg/mL) were added to the samples. After incubation and centrifugation, anti-his-APC was used as the secondary antibody for incubation and staining; and then the flow cytometer was used for detection to obtain the IC50 value of the candidate nanobody in blocking the binding of human PD-1/PD-L1, as shown in FIG. 3.

Row | in vitro activity compared with KN035 | Molecule
1 | superior to that of KNO35 | B1

Same assay, conditions: human PD-1-his 1 μg/mL, FIG. 3

Row | Molecule | IC50 activity in blocking human PD-1/PD-L1 binding, compared with KN035
2 | B1 | comparable to those of the positive control antibody KN035
3 | B2 | comparable to those of the positive control antibody KN035

These molecules were tested against T1, human PD-1/PD-L1 (assay: Blocking of human PD-1/PD-L1 binding on HEK293T/hPD-L1 cells, single concentration, flow cytometry). Conditions: nanobody 10 μg/ml, human PD-1-his 1 μg/mL, FIG. 2.
Description: The stably transfected cell line HEK293T/hPD-L1 was digested and centrifuged to remove the supernatant. The cells were washed once with PBS and the cell density was adjusted to 2.5×10^6 cells/mL. 100 μL of cell suspension was added to each cell sample, i.e., 2.5×10^5 cells/sample. The human PD-1-his protein (at a concentration of 1 μg/mL) and candidate anti-human PD-L1 nanobodies (at a concentration of 10 μg/ml) were added to the samples respectively. The abtained samples were incubated in a refrigerator at 4° C. for 20 min and centrifuged to remove the supernatant. The obtained samples were washed once with PBS. The diluted antibody anti-his-APC was used as the secondary antibody to resuspend the above cells. The cells were incubated in a refrigerator at 4° C. for 20 min and centrifuged to remove the supernatant. The cells were washed twice with PBS, transferred to a flow tube; and detected by flow cytometry.

Row | activity in blocking human PD-1/PD-L1 binding | Molecule
4 | effectively block | B1
5 | effectively block | B2

The molecules below were run against T2, PD-L1 (Homo sapiens, UniProt Q9NZQ7) (assay: Affinity of affinity-matured nanobodies to PD-L1 compared with the original antibodies). Conditions: relative to original antibody (h_Nb1 VHH or h_Nb2 VHH).
T2 sequence (Q9NZQ7 19-290): as above
Format: binding
Description: The full-length amino acid sequences of preferred nanobodies that specifically bind to human PD-L1 in the above examples (SEQ ID No. 1 and SEQ ID No. 5) were annotated with the CCG method for the antibody CDR and FR regions. Suitable FR and CDR region templates were selected by antibody homology modeling to construct and select the optimal nanobody three-dimensional protein structure. The crystal structure of human PD-L1 protein was obtained from the PDB protein database. A preferred candidate library of PD-L1 nanobody-PD-L1 protein complex structures was obtained by protein complex homology modeling and protein-protein molecular docking methods. Based on the PD-1/PD-L1 in vitro competitive binding characteristics of the preferred antibodies, a suitable docking angle was selected to determine the optimal docking conformation. The key interaction sites of the selected nanobody-PD-L1 protein complex structure were analyzed, with attention paid to Van Der Waals forces, hydrogen bonds, ionic bonds, hydrophobic interactions, etc. The pairs of action sites with low affinity energy values between the nanobodies and the action sites on PD-L1 were focused on as affinity maturation point mutation objects. […] Finally, the affinity maturation scheme of the CDR regions of the preferred antibodies was determined, and the sequences of the antibodies after affinity maturation were SEQ ID NO. […]

Row | Improved value of relative affinity | Molecule
6 | 8.4837 | B3

What follows are molecules tested on CT26/hPD-L1 tumor (assay: In vivo anti-tumor activity in CT26/hPD-L1 tumor model). Conditions: 10 mg/kg intraperitoneal, 6 administrations D0-D16, tumors dissected on Day 17.
Set-up: species or system BALB/c mice with dual humanization of PD-1/PD-L1
Description: To further evaluate the in vivo anti-tumor activity of anti-human PD-L1 and TLR7 dual-targeting nanobody conjugates, the CT26/hPD-L1 tumor model established by using BALB/c mice with dual humanization of PD-1/PD-L1 targets was used. When the average tumor volume reached 80-100 mm^3, the mice were randomly divided into 6 groups according to the tumor volume, with 6 mice in each group; the day of grouping was defined as DO, and the drugs were administered on DO, D3, D7, D10, D13, and D16, for a total of 6 times, with a dose of 10 mg/kg by intraperitoneal administration. The tumor size was measured 2-3 times a week, and the tumor growth curve was plotted.

Row | Molecule | tumor inhibition rate [%]
7 | B1 | 85.14
8 | B4 | 65.83
9 | B2 | 81.17

Each molecule was assayed against T2, PD-L1 (assay: Binding of candidate nanobodies to human PD-L1 on HEK293T/hPD-L1 cells, flow cytometry). Conditions: nanobody 10 μg/ml, FIG. 1.
Set-up: expressed in transfected cells; host or cells: HEK293T
Description: The stably transfected cell line HEK293T/hPD-L1 was digested and centrifuged, and the supernatant was removed. The cells were washed once with PBS and the cell density was adjusted to 2.5×10^6 cells/mL. 100 μL of cell suspension was added to each cell sample, i.e., 2.5×10^5 cells/sample. Different anti-human PD-L1 candidate nanobodies (at a concentration of 10 μg/ml) were added into the samples. The samples were incubated in a 4° C. refrigerator for 20 min and then centrifuged to remove the supernatant, and washed once with PBS. The diluted antibody anti-human IgG Fc (FITC) was used as a secondary antibody to resuspend the above cells. The abtained samples were incubated in a 4° C. refrigerator for 20 min and centrifuged to remove the supernatant. The cells were washed twice with PBS, transferred to a flow tube; and detected on a flow cytometer to obtain the binding activity of the candidate nanobody with human PD-L1, as shown in FIG. 1.

Row | binding activity to human PD-L1 | Molecule
10 | good binding activity | B5
11 | good binding activity | B6
12 | good binding activity | B7
13 | good binding activity | B1
14 | good binding activity | B2
15 | good binding activity | B8
16 | good binding activity | B9
17 | good binding activity | B10
18 | good binding activity | B11

Source: US20250197503A1, “ANTI-HUMAN PD-Ll AND TLR7 DOUBLE-TARGETING NANOBODY CONJUGATE DRUG AND USE THEREOF IN RESISTING TUMOR” (SHANGHAI INSTITUTE OF MATERIA MEDICA , CHINESE ACADEMY OF …, priority 2022, published 2025)
